Results on two molecules are retold here after PMC3437207, “G-quadruplex recognition activities of E. Coli MutS”.

Data set [1] has as its target T1, MutS (Escherichia coli, UniProt P23909 1-853).
T1 sequence: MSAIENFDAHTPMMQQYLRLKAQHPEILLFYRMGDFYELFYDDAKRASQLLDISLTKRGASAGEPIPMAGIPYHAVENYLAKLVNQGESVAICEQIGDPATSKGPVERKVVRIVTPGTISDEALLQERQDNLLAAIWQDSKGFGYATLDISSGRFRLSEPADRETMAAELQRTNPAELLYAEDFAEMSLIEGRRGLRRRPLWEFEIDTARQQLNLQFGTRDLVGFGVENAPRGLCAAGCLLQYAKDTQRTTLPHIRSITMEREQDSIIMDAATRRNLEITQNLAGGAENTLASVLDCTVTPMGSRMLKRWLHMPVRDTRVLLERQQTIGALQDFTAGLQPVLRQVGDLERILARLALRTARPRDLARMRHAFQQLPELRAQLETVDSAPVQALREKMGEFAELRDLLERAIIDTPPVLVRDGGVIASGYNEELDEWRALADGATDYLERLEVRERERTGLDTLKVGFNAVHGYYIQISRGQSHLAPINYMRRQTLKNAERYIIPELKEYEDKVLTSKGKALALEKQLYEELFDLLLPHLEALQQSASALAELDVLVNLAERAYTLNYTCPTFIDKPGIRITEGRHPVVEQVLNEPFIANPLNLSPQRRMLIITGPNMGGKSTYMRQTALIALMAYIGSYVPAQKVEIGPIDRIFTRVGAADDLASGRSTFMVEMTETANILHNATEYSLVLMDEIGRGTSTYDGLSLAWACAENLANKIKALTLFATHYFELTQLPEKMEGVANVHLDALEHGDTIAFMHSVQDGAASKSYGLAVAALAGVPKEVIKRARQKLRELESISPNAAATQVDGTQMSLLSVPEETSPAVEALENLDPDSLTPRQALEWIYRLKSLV
Description: EMSA; no nucleotide; 5 mM Mg2+; homoduplex competitor; 20 mM Tris pH 7.6, 5 mM MgCl2, 1 mM DTT, 50 ug/ml BSA, 10 mM KCl, 200 fmol homoduplex competitor, 10-20 fmol labeled DNA in 20 ul; 6% native PAGE 0.5X TBE with. As to conditions: protein: recombinant; tags: His; chain copies: 2; label: 5' 32P; blunt; single G-T mismatch at position 14 of strand 1.

In data set [2] the target is T1, MutS. Description: EMSA; 38-150 nM protein; 20 mM Tris pH 7.6, 5 mM MgCl2, 1 mM DTT, 50 ug/ml BSA, 10 mM KCl, 200 fmol homoduplex competitor, 10-20 fmol labeled DNA in 20 ul; 6% native PAGE 0.5X TBE with. Conditions: protein: recombinant; tags: His; chain copies: 2; label: 32P; blunt.

Where a chain is given by its changes, count along the chain named.

B1: G-T mismatch heteroduplex (dsDNA)
DNA 1: CTAGCAAGCTTTCGATTCTAGAAATTCGGC
DNA 2: GCCGAATTTCTAGAATTGAAAGCTTGCTAG
With B1, the binding signal with MutS [1] was > 2 fold Kd of MutS for TP-G4.

B2: Homoduplex (dsDNA)
DNA 1: B1 DNA 1 with G14A
DNA 2: B1 DNA 2
Take B2: the binding result in the data set with MutS [2] was “no binding”.
